In patent publication US20250339569A1 (3B PHARMACEUTICALS, published 2025):
Starred links: 1 amine or outer side, 2 acyl side, 3 side chain; linkers in the order of their positions; H or OH if unused. Positions of bridges follow the written chain, without caps; N, C: chain ends. Non-standard residues stand in square brackets, D forms with d. Groups on a side chain read outwards from the residue. Primed or numbered codes have the meaning given here. No end group written: not given here. *: point of attachment. Af3(2Py6SaNH) = 3-amino-L-phenylalanine, ring amine acylated by 6-(sulfamoylamino)pyridine-2-carboxylic acid, NS(=O)(=O)Nc1cccc(C(=O)Nc2cccc(C[C@H](N[*:1])C(=O)[*:2])c2)n1; Af3(4SaPy2Ac) = 3-amino-L-phenylalanine, ring amine acylated with (4-sulfamoylpyrazol-1-yl)acetic acid, NS(=O)(=O)c1cnn(CC(=O)Nc2cccc(C[C@H](N[*:1])C(=O)[*:2])c2)c1; Af3(TzPr) = 3-amino-L-phenylalanine acylated on the ring amine with 3-(1H-1,2,4-triazol-3-yl)propanoic acid, O=C(CCc1nc[nH]n1)Nc1cccc(C[C@H](N[*:1])C(=O)[*:2])c1; Af3(Ac-Glu) = 3-aminophenylalanine acylated on the ring amine with N-acetyl-glutamic acid, CC(=O)N[C@@H](CCC(=O)[*:3])C(=O)Nc1cccc(C[C@H](N[*:1])C(=O)[*:2])c1; Af3(Hsfu) = 3-amino-L-phenylalanine, ring amine acylated with 4-sulfamoylfuran-2-carboxylic acid, NS(=O)(=O)c1coc(C(=O)Nc2cccc(C[C@H](N[*:1])C(=O)[*:2])c2)c1; Af3(HO-Succinyl) = 3-aminophenylalanine with succinyl (free acid) on the ring amine, O=C(CCC(=O)[*:3])Nc1cccc(C[C@H](N[*:1])C(=O)[*:2])c1; Eem = S-benzyl-cysteine-sulfone, O=C([C@H](CS(=O)(=O)Cc1ccccc1)N[*:1])[*:2]; APAc″ = 2-(4-(amino)piperidin-1-yl)acetic acid, NC1CCN(CC(=O)*)CC1; DOTA = O=C(O)CN1CCN(CC(=O)O)CCN(CC(=O)*)CCN(CC(=O)O)CC1; PPAc = 4-carboxymethyl piperazine linker; mXylylene = c1cc(C[*:1])cc(C[*:2])c1; tBuAla = CC(C)(C)C[C@H](N)C(=O)O; NMeD = CN[C@@H](CC(=O)O)C(=O)O; N4BzlCl = not defined here; hSer = N[C@@H](CCO)C(=O)O; AGLU′ = not defined here; APAc = not defined here; Apr = not defined here; Dap = NC[C@H](N)C(=O)O; AEEA = NCCOCCOCC(=O)O; Nlys = NCCCCNCC(=O)O; Ttds″ = Ttds spacer; Bn = c1ccc(C*)cc1

Tests used:
[1] = biological target: T1, Fc-fusion protein of human carbonic anhydrase IX (human, UniProt Q16790 38-414); experiment: SPR, captured hCAIX-Fc; t1/2 category A: >15.0 min
Procedure: (§1) Stock solutions of test compounds were prepared by dissolving each compound in DMSO. DMSO stock solution were diluted 1:1000 in Running Buffer without DMSO. […] SPR binding analyses were performed in Single Cycle Kinetic (SCK) mode at 25° C.
(§2) For each test compound, SPR raw data in the form of resonance units (RU) were plotted as sensorgrams using the Biacore™ T200 control software. The signal from the blank sensorgram was subtracted from that of the test compound sensorgram (blank corrected). The blank corrected sensorgram was corrected for baseline drift by subtracting the sensorgram of a SCK run without the test compound (running buffer only). […] Raw data and fit results were imported as text files in IDBS. The pKD value (negative decadic logarithm of dissociation constant) was calculated in the IDBS excel template.

[2] = biological target: T1, Fc-fusion protein of human carbonic …; experiment: SPR, captured hCAIX-Fc; pKD category A: >8.0
Procedure: as §1, §2

[3] = biological target: T1, Fc-fusion protein of human carbonic …; experiment: SPR, captured hCAIX-Fc; t1/2 category B: 5.1-15.0 min
Procedure: as §1, §2

t1/2 (half-life of the complex, SPR) [1] [min] | pKD [2] [pkd] | t1/2 (half-life of the complex, SPR) [3] [min] | Binder
> 15 | > 8 |  | {DOTA-APAc″}-VYCE[dP]DW[tBuAla]TWSC-NH2 (linker 3-12 via mXylylene) [3BP-4142]
 |  | 5.1 to 15 | {DOTA-PPAc}-QCE[dP]D[Af3(2Py6SaNH)]LTWSC-NH2 (linker 2-11 via mXylylene) [3BP-4514]
> 15 | > 8 |  | {DOTA-APAc″}-VYCE[dP]D[Af3(TzPr)]LTWSC-NH2 (linker 3-12 via mXylylene) [3BP-4324]
> 15 | > 8 |  | {DOTA}-VDCE[dP]DWLTW[Dap]C-NH2 (lactam 2-11; linker 3-12 via mXylylene; SMILES CC(C)C[C@@H]1NC(=O)[C@H](Cc2c[nH]c3ccccc23)NC(=O)[C@H](CC(=O)O)NC(=O)[C@H]2CCCN2C(=O)[C@H](CCC(=O)O)NC(=O)[C@@H]2CSCc3cccc(c3)CSC[C@@H](C(N)=O)NC(=O)[C@H](CNC(=O)C[C@H](NC(=O)[C@@H](NC(=O)CN3CCN(CC(=O)O)CCN(CC(=O)O)CCN(CC(=O)O)CC3)C(C)C)C(=O)N2)NC(=O)[C@H](Cc2c[nH]c3ccccc23)NC(=O)[C@H]([C@@H](C)O)NC1=O) [3BP-4264]
> 15 | > 8 |  | {DOTA-APAc″}-VYCE[dP]D[Af3(HO-Succinyl)]LTWSC-NH2 (linker 3-12 via mXylylene) [3BP-4237]
> 15 | > 8 |  | VDCE[dP]DWLTW[Dap]C-NH2 (lactam 2-11; linker 3-12 via mXylylene; not fully specified (N-terminus); also: indium complexed by DOTA) [3BP-4337]
> 15 |  |  | {DOTA-PPAc}-QCE[dP]D[Af3(4SaPy2Ac)]LTWSC-NH2 (linker 2-11 via mXylylene) [3BP-4790]
> 15 | > 8 |  | {DOTA-APAc}-VYCE[dP][hSer]WLTWSC-NH2 (linker 3-12 via mXylylene; reading uncertain) [3BP-4102]
> 15 | > 8 |  | {DOTA-APAc″}-VECE[dP]DWLTW[Dap]C-NH2 (lactam 2-11; linker 3-12 via mXylylene) [3BP-4175]
> 15 | > 8 |  | {DOTA-APAc}-VYCE[dP]DWLTWSC-NH2 (linker 3-12 via mXylylene; reading uncertain; also: ['indium complexed by DOTA']) [3BP-3905]
> 15 |  |  | {DOTA-PPAc}-QCE[dP]D[Af3(Hsfu)]LTWSC-NH2 (linker 2-11 via mXylylene) [3BP-4788]
> 15 | > 8 |  | Ac-VYCE[dP]DWLTWSC-NH2 (linker 3-12 via mXylylene; SMILES CC(=O)N[C@H](C(=O)N[C@@H](Cc1ccc(O)cc1)C(=O)N[C@H]1CSCc2cccc(c2)CSC[C@@H](C(N)=O)NC(=O)[C@H](CO)NC(=O)[C@H](Cc2c[nH]c3ccccc23)NC(=O)[C@H]([C@@H](C)O)NC(=O)[C@H](CC(C)C)NC(=O)[C@H](Cc2c[nH]c3ccccc23)NC(=O)[C@H](CC(=O)O)NC(=O)[C@H]2CCCN2C(=O)[C@H](CCC(=O)O)NC1=O)C(C)C) [3BP-3565]
> 15 | > 8 |  | {DOTA-APAc}-VYCE[dP]C(Bn)WLTWSC-NH2 (linker 3-12 via mXylylene; not fully specified; reading uncertain) [3BP-4128]
> 15 | > 8 |  | {DOTA-APAc}-VYCE[dP]NWLTWSC-NH2 (linker 3-12 via mXylylene; reading uncertain) [3BP-4103]
> 15 | > 8 |  | {DOTA-APAc″}-VYCE[dP]DWLTWAC-NH2 (linker 3-12 via mXylylene) [3BP-3432]
 | > 8 | 5.1 to 15 | {DOTA-Ttds″}-VYCE[dA]DWLTWAC-NH2 (linker 3-12 via mXylylene; not fully specified) [3BP-3279]
 | > 8 | 5.1 to 15 | {DOTA-APAc}-VYCE[dP]DWLTWRC-NH2 (linker 3-12 via mXylylene; reading uncertain) [3BP-3599]
> 15 | > 8 |  | {DOTA-APAc}-VYCE[dP]DWLE(AGLU′)WSC-NH2 (linker 3-12 via mXylylene; reading uncertain) [3BP-4121]
> 15 | > 8 |  | {DOTA-APAc″}-VYCE[dP]E(N4BzlCl)WLTWSC-NH2 (linker 3-12 via mXylylene; reading uncertain) [3BP-4334]
> 15 | > 8 |  | {DOTA-APAc}-VYCE[dP]DWLTWEC-NH2 (linker 3-12 via mXylylene; not fully specified (residue 11); reading uncertain) [3BP-4122]
> 15 | > 8 |  | Ac-VYCE[dP]DWLTWAC-NH2 (linker 3-12 via mXylylene; SMILES CC(=O)N[C@H](C(=O)N[C@@H](Cc1ccc(O)cc1)C(=O)N[C@H]1CSCc2cccc(c2)CSC[C@@H](C(N)=O)NC(=O)[C@H](C)NC(=O)[C@H](Cc2c[nH]c3ccccc23)NC(=O)[C@H]([C@@H](C)O)NC(=O)[C@H](CC(C)C)NC(=O)[C@H](Cc2c[nH]c3ccccc23)NC(=O)[C@H](CC(=O)O)NC(=O)[C@H]2CCCN2C(=O)[C@H](CCC(=O)O)NC1=O)C(C)C) [3BP-3282]
 | > 8 | 5.1 to 15 | Ac-VYCE[dA]DWLTWAC-NH2 (linker 3-12 via mXylylene; SMILES CC(=O)N[C@H](C(=O)N[C@@H](Cc1ccc(O)cc1)C(=O)N[C@H]1CSCc2cccc(c2)CSC[C@@H](C(N)=O)NC(=O)[C@H](C)NC(=O)[C@H](Cc2c[nH]c3ccccc23)NC(=O)[C@H]([C@@H](C)O)NC(=O)[C@H](CC(C)C)NC(=O)[C@H](Cc2c[nH]c3ccccc23)NC(=O)[C@H](CC(=O)O)NC(=O)[C@@H](C)NC(=O)[C@H](CCC(=O)O)NC1=O)C(C)C) [3BP-3280]
 | > 8 | 5.1 to 15 | VYCEGDWLTWQC-NH2 (linker 3-12 via mXylylene; not fully specified (N-terminus); also: indium complexed by DOTA) [3BP-3328]
> 15 | > 8 |  | Ac-VYCE[dP]DWLTWE([Apr-DOTA])C-NH2 (linker 3-12 via mXylylene; reading uncertain) [3BP-3478]
 | > 8 | 5.1 to 15 | Ac-SYCE[dP]DWLTWE([Apr-AEEA-DOTA])C-NH2 (linker 3-12 via 3MeBn; reading uncertain) [3BP-3732]
> 15 | > 8 |  | {DOTA-APAc″}-VYCE[dP]D[Af3(Ac-Glu)]LTWSC-NH2 (linker 3-12 via mXylylene) [3BP-4361]
> 15 | > 8 |  | {DOTA-APAc}-VYCE[dP][Eem]WLTWSC-NH2 (linker 3-12 via mXylylene; not fully specified; reading uncertain) [3BP-4123]
> 15 | > 8 |  | {DOTA-APAc}-VYCE[dP][NMeD]WLTWSC-NH2 (linker 3-12 via mXylylene; reading uncertain) [3BP-4107]
> 15 | > 8 |  | Ac-VYCE[Nlys](DOTA)DWLTWAC-NH2 (linker 3-12 via mXylylene) [3BP-3562]
